These results are taken from patent publication US20240398911A1 (BOARD OF THE TRUSTEES OF THE UNIVERSITY OF ILLINOIS, published 2024).

Broadly, the Kd is the equilibrium constant for the complex coming apart. High values mean a looser complex, low ones a tighter complex. What is called koff is the first-order rate constant of dissociation. The low end stands for slow dissociation, the high end for fast dissociation. The kon is the rate constant with which the complex forms. Read a low kon as slower complex formation. The term EC50 (read off the curve) denotes the concentration that produces a half-maximal response.

Read-outs that look alike come from different tables or passages of the source.

Experiment [1] concerns the target T1, RBD (a.a. 333-529) of SARS-CoV-2 S with 8 histidine tag (SARS-CoV-2, UniProt P0DTC2 333-529). In words: BLI, sACE22-IgG1 immobilized, RBD-8h analyte.
Experiment [2] has as its target T1, RBD (a.a. 333-529) of SARS-CoV-2 S with ….
The target of experiment [3] is full length S of SARS-CoV-2 (untagged, a.a. 1-1273) expressed on Expi293F cells (SARS-CoV-2, UniProt P0DTC2 16-1273).
Experiment [4] deals with T1, RBD (a.a. 333-529) of SARS-CoV-2 S with …. This is another data set of the same source.
Experiment [5] deals with S protein of SARS-CoV-1 expressed on Expi293F cells (SARS-CoV-1, UniProt P59594 14-1255). The experiment can be described thus: flow cytometry; Expi293F cells expressing S of SARS-CoV-1; normalized units, N=3. For orientation: Flow cytometry measures light scatter and fluorescence of single cells or particles in a stream.

B1: dimeric sACE22.v2 fused to the Fc of human IgG1 (Fc fusion)
chain: STIEEQAKYFLDKFNHEAEDLFYQSSLASWNYNTNITEENVQNMNNAGDKWSAFLKEQSTTAQMYPLQEIQNLTVKLQLQALQQNGSSVLSEDKSKRLNTILNTMSTIYSTGKVCNPDNPQECLLLEPGLNEIMANSLDYNERLWAWESWRSEVGKQLRPLYEEYVVLKNEMARANHYEDYGDYWRGDYEVNGVDGYDYSRGQLIEDVEHTFEEIKPLYEHLHAYVRAKLMNAYPSYISPIGCLPAHLLGDMWGRFWTNLYSLTVPFGQKPNIDVTDAMVDQAWDAQRIFKEAEKFFVSVGLPNMTQGFWEYSMLTDPGNVQKAVCHPTAWDLGKGDFRILMCTKVTMDDFLTAHHEMGHIQYDMAYLAQPFLLRNGANEGFHEAVGEIMSLSAATPKHLKSIGLLSPDFQEDNETEINFLLKQALTIVGTLPFTYMLEKWRWMVFKGEIPKDQWMKKWWEMKREIVGVVEPVPHDETYCDPASLFHVSNDYSFIRYYTRTLYQFQFQEALCQAAKHEGPLHKCDISNSTEAGQKLFNMLRLGKSEPWTLALENVVGAKNMNVRPLLNYFEPLFTWLKDQNKNSFVGWSTDWSPYADQSIKVRISLKSALGDKAYEWNDNEMYLFRSSVAYAMRQYFLKVKNQMILFGEEDVRVANLKPRISFNFFVTAPKNVSDIIPRTEVEKAIRMSRSRINDAFRLNDNSLEFLGIQPTLGGS
As to B1, in experiment [1], binding was characterised by a dissociation constant (Kd) of 0.2 nM, the koff turned out to be 0.00014 s⁻¹ and the kon is 580000 M⁻¹ s⁻¹.

B2: dimeric sACE22.v2.4 with 8 histidine tag (receptor)
chain: STIEEQAKYFLDKFNHEAEDLFYQSSLASWNYNTNITEENVQNMNNAGDKWSAFLKEQSTTAQMYPLQEIQNLTVKLQLQALQQNGSSVLSEDKSKRLNTILNTMSTIYSTGKVCNPDNPQECLLLEPGLNEIMANSLDYNERLWAWESWRSEVGKQLRPLYEEYVVLKNEMARANHYEDYGDYWRGDYEVNGVDGYDYSRGQLIEDVEHTFEEIKPLYEHLHAYVRAKLMNAYPSYISPIGCLPAHLLGDMWGRFWTNLYSLTVPFGQKPNIDVTDAMVDQAWDAQRIFKEAEKFFVSVGLPNMTQGFWEYSMLTDPGNVQKAVCHPTAWDLGKGDFRILMCTKVTMDDFLTAHHEMGHIQYDMAYAAQPFLLRNGANEGFHEAVGEIMSLSAATPKHLKSIGLLSPDFQEDNETEINFLLKQALTIVGTLPFTYMLEKWRWMVFKGEIPKDQWMKKWWEMKREIVGVVEPVPHDETYCDPASLFHVSNDYSFIRYYTRTLYQFQFQEALCQAAKHEGPLHKCDISNSTEAGQKLFNMLRLGKSEPWTLALENVVGAKNMNVRPLLNYFEPLFTWLKDQNKNSFVGWSTDWSPYADQSIKVRISLKSALGDKAYEWNDNEMYLFRSSVAYAMRQYFLKVKNQMILFGEEDVRVANLKPRISFNFFVTAPKNVSDIIPRTEVEKAIRMSRSRINDAFRLNDNSLEFLGIQPTLGGSGHHHHHHHH
As for B2, the “IC50 (read off the curve)” value in experiment [2] was about 4 nM.

B3: sACE2.v2 with 8 histidine tag (receptor)
chain: STIEEQAKYFLDKFNHEAEDLFYQSSLASWNYNTNITEENVQNMNNAGDKWSAFLKEQSTTAQMYPLQEIQNLTVKLQLQALQQNGSSVLSEDKSKRLNTILNTMSTIYSTGKVCNPDNPQECLLLEPGLNEIMANSLDYNERLWAWESWRSEVGKQLRPLYEEYVVLKNEMARANHYEDYGDYWRGDYEVNGVDGYDYSRGQLIEDVEHTFEEIKPLYEHLHAYVRAKLMNAYPSYISPIGCLPAHLLGDMWGRFWTNLYSLTVPFGQKPNIDVTDAMVDQAWDAQRIFKEAEKFFVSVGLPNMTQGFWEYSMLTDPGNVQKAVCHPTAWDLGKGDFRILMCTKVTMDDFLTAHHEMGHIQYDMAYLAQPFLLRNGANEGFHEAVGEIMSLSAATPKHLKSIGLLSPDFQEDNETEINFLLKQALTIVGTLPFTYMLEKWRWMVFKGEIPKDQWMKKWWEMKREIVGVVEPVPHDETYCDPASLFHVSNDYSFIRYYTRTLYQFQFQEALCQAAKHEGPLHKCDISNSTEAGQKLFNMLRLGKSEPWTLALENVVGAKNMNVRPLLNYFEPLFTWLKDQNKNSFVGWSTDWSPYADGSGHHHHHHHH
Turning to B3, the “EC50 (read off the curve)” value in experiment [3] was about 10 nM. Also, the “IC50 (read off the curve)” value in experiment [4] was about 6 nM.

B4: REGN10933 (casirivimab) (antibody, V domains shown)
VH: QVQLVESGGGLVKPGGSLRLSCAASGFTFSDYYMSWIRQAPGKGLEWVSYITYSGSTIYYADSVKGRFTISRDNAKSSLYLQMNSLRAEDTAVYYCARDRGTTMVPFDYWGQGTLVTVSS
VL: DIQMTQSPSSLSASVGDRVTITCQASQDITNYLNWYQQKPGKAPKLLIYAASNLETGVPSRFSGSGSGTDFTFTISGLQPEDIATYYCQQYDNLPLTFGGGTKVEIKR
For B4, the binding result in experiment [5] was “no binding (tested: 70 nM)”.

B5: REGN10987 (imdevimab) (antibody, V domains shown)
VH: QVQLVESGGGVVQPGRSLRLSCAASGFTFSNYAMYWVRQAPGKGLEWVAVISYDGSNKYYADSVKGRFTISRDNSKNTLYLQMNSLRTEDTAVYYCASGSDYGDYLLVYWGQGTLVTVSS
VL: QSALTQPASVSGSPGQSITISCTGTSSDVGGYNYVSWYQQHPGKAPKLMIYDVSKRPSGVSNRFSGSKSGNTASLTISGLQSEDEADYYCNSLTSISTWVFGGGTKLTVLG
In the case of B5, the binding result in experiment [5] is reported as “no binding (tested: 70 nM)”.
